± gives the uncertainty stated by the source.
Assay: amyloid nucleation score (Sup35N fusion, yeast selection) (log enrichment); library NNK2; higher = more nucleation; inactive = no reads after selection
In short: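 On medium lacking adenine and uracil, psi-negative yeast expressing peptides of 20 random codons fused to Sup35N were grown 7 days at 30°C after a 24-hour induction with 100 μM copper sulfate. Illumina sequencing of input and output plasmid inserts gave the reads, and sequences under 100 input reads were excluded. The nucleation score is the DiMSum log enrichment of output over input reads, centred on the mode score of non-aggregating sequences.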

Row | Substance | amyloid nucleation score
1 | LNVDGDRAGVYIVKVHDPVR | 0.027 ± 0.74
2 | LNVLKNT | 0.187 ± 0.24
3 | LNWFFLL | 0.937 ± 0.26
4 | LPDIFLSVYKLLVYKSLLPA | 0.073 ± 0.53
5 | LPILCTWLM | -0.347 ± 0.55
6 | LPLILV | 0.356 ± 0.8
7 | LQFLLLE | 3.38 ± 0.047
8 | LQKWYGDD | 1.58 ± 0.34
9 | LQRSHSWTQLPLCTSRLRLL | 0.294 ± 1.1
10 | LQVIHGSPRLRLYDYQRNNF | 7.482 ± 0.04
11 | LQYIY | -0.533 ± 0.78
12 | LRADLYCFACLNAPSC | 5.89 ± 0.091
13 | LRASWLYYFKSKVSFGCKGD | -0.405 ± 0.41
14 | LREGCVTLLS | 0.27 ± 0.36
15 | LRFYAFRLDALSLISKSGVQ | 1.08 ± 0.36
16 | LRFYERDILSILLFLMMMFV | -1.07 ± 0.63
17 | LRGGTLVDNNLSANNYVYEI | -0.967 ± 0.76
18 | LRLFNLKQKKNRKNWRMFAG | -0.979 ± 0.6
19 | LRLFSFIVMGHNGVKHLVLC | 0.011 ± 0.8
20 | LRMMYRFGVCYVLL | 0.399 ± 0.31
21 | LRPLIIPGSKRHCNTVL | -0.005 ± 0.79
22 | LRREGTYIRPCKDMYFGDSC | inactive
23 | LRSPWLF | -0.687 ± 0.79
24 | LRTTGLHFSSRLMVFTLNWI | -0.237 ± 0.33
25 | LRVMYHFNQCQFSYLRDFGR | 8.38 ± 0.063

Row | Substance | amyloid nucleation score
26 | LRVPIR | 0.077 ± 0.28
27 | LRYKGMRFLNWMRNLKWDGI | 0.022 ± 0.65
28 | LSCHSDITILHDYTNLLSFI | -0.007 ± 0.63
29 | LSFDEVTLVRAKFHGSVIRL | 4.86 ± 0.06
30 | LSGLVFIN | -0.053 ± 1
31 | LSHMFVTALIVIEKFCLTAL | 0.111 ± 0.39
32 | LSIQLTEHA | 2.13 ± 0.079
33 | LSIVKFI | 1.3 ± 0.12
34 | LSLALDRQELAVHLFVLTCY | 0.829 ± 0.57
35 | LSLLSFGISASFVV | -1.18 ± 0.41
36 | LSLMTSLRWIGHSSFIVSKP | -0.168 ± 0.79
37 | LSLWTIGISPVGYRLTNRHQ | -0.315 ± 1
38 | LSQCYSRLLVSTMKSH | 0.854 ± 0.14
39 | LSQQSSMLKDRITDICGDLL | 1.4 ± 0.33
40 | LSRCWVMSQQCKKSAGVFYA | -0.026 ± 0.55
41 | LSRNYFVSVLFFSTVRMALA | -0.433 ± 0.54
42 | LSRRMDMRSSTSALHVSIQL | 6.413 ± 0.064
43 | LSSFDSF | inactive
44 | LSTLLFRIYGLPS | -2.12 ± 0.49
45 | LSTRLGNVSHFWLWTRSCMG | 1.04 ± 0.34
46 | LSVAKPSSACRVKLWSPSVG | 0.492 ± 0.56
47 | LSVDQSSSELSTDLFDFLHF | inactive
48 | LSVSCGVKCLEWADMMAHQV | -0.533 ± 0.54
49 | LSVSKSSIYLLLMRSRGHG | 0.175 ± 0.55
50 | LTGWMFISWSLTIPRPPTIE | -0.849 ± 1.1

Row | Substance | amyloid nucleation score
51 | LTHWI | -0.284 ± 0.23
52 | LTRCPYGSCLNWERWVGYMM | 1.93 ± 0.1
53 | LTRFMYYLFTDLC | -0.813 ± 1.1
54 | LTRQYNNRNPMSLRAIGYAF | inactive
55 | LTSGNSMIVVS | 0.15 ± 0.18
56 | LTVYVFSDFSRATVGPSRWL | 0.238 ± 0.48
57 | LTYACSWYQKSQFGSCLNEW | 0.449 ± 0.26
58 | LVALVLPGRINENKYVCGD | -0.588 ± 0.49
59 | LVCELYI | -0.171 ± 0.39
60 | LVCNPYMRDTARSESLGSAW | 0.923 ± 0.66
61 | LVDLWSRRGCKKLVRYVESL | 0.818 ± 0.53
62 | LVFNVLNRFKSARSSRCAGS | -1.14 ± 0.61
63 | LVFVAGRILMMIFFVSGLAI | 2.59 ± 0.09
64 | LVGDLVVGYGMCRKGVVR | 5.03 ± 0.079
65 | LVHRCRYGLLTGLFEGQPVM | -1.12 ± 1.1
66 | LVIRAKYYNPRTWGKFLHPV | -0.381 ± 0.28
67 | LVIVVT | 3.1 ± 0.091
68 | LVLLSFGSV | -0.127 ± 1
69 | LVLTDSAYRFFKRGDSVDKC | 1.62 ± 0.1
70 | LVLTSLQHGQFVVVVSVVW | 0.543 ± 0.31
71 | LVMVWFLNLVFCFGDFNSNR | 0.74 ± 0.18
72 | LVMYGEDDD | -0.025 ± 1.1
73 | LVNTYYAHVWWLLVGIMMLS | -0.645 ± 1.1
74 | LVNVM | 1.39 ± 0.095
75 | LVQCRNVSMNTILSIGGGKS | 6.17 ± 0.075

Row | Substance | amyloid nucleation score
76 | LVQFHRLPRTRWGEFVRGDH | 3.84 ± 0.092
77 | LVRSIHMVPLTWFRSNSGMF | 4.13 ± 0.078
78 | LVSMNFYCMILGIESLFVLS | 4.04 ± 0.074
79 | LVSQLPVDFMVTFDILTVEI | -0.184 ± 1.1
80 | LVSVLGSTFLGSAWDTEGWY | -0.579 ± 0.5
81 | LVTKSAGLKGGLMRGDRSRK | 0.585 ± 0.37
82 | LVWGVP | -0.945 ± 0.76
83 | LVYCSLLNLILWMSAYI | -0.518 ± 0.45
84 | LVYNI | -0.081 ± 1.1
85 | LWDEVAGVAVKI | 3.3 ± 0.1
86 | LWDLRSEYKFYINMDHFMTV | -1.4 ± 0.75
87 | LWFDLSSTLPQM | 0.396 ± 0.62
88 | LWIGWSLKPKVDVRLCHWVK | 0.173 ± 1.1
89 | LWLIKARYFLELRRLESIRQ | 0.208 ± 1.1
90 | LWPCSCFVRRCYECFEGDAG | 3.2 ± 0.057
91 | LWQVRIRPQH | 1.37 ± 0.12
92 | LWVCSCSNALTNGLWGAVSL | 5.151 ± 0.036
93 | LWVSVLFKMHAYWLGLEPNS | 2 ± 0.15
94 | LYFRVNDEGVHFTCEGQKKE | 1.46 ± 0.17
95 | LYHVISSNWHEDNDMT | 0.003 ± 0.23
96 | LYIHVDWLAWKTHVRQTKVT | -0.455 ± 1.1
97 | LYKRMYECRRYFLMWNYRGF | inactive
98 | LYLHKDHIDVNFNHMVKGLT | -0.263 ± 1.1
99 | LYLIRRHESCCLPNIR | 0.039 ± 0.46
100 | LYLSFKGRREFFVIYLKFHS | inactive

Row | Substance | amyloid nucleation score
101 | LYNCVRYSSYLFNVVPCRGG | inactive
102 | LYQFSFFGYSYL | 2.39 ± 0.069
103 | LYTKRSKY | -0.161 ± 1.1
104 | LYTLTENRLRLYMIYAGLRW | -0.362 ± 0.5
105 | LYVCHKICSSCLKGW | -1.11 ± 0.61
106 | LYVGYSDMPVWSPASVCISI | 0.001 ± 0.65
107 | LYVSALTSVRSWGCGNLVLP | 3.37 ± 0.08
108 | LYWNVAGLGPQYKSLCLGFR | -0.753 ± 0.56
109 | LYWSFYNYWATHVGFWHKKA | -1.87 ± 0.64
110 | LYYLFSKFILRDETSSSQKK | inactive
111 | MAFVDISSANFRKITRDLLP | 0.82 ± 0.19
112 | MANYYLCFYFVLVMRQMKFT | -1.18 ± 0.62
113 | MARTISAGSVLFNLGSRIWH | inactive
114 | MAYSGKVLFHVSDIVVWGKL | 5.9 ± 0.086
115 | MCCGCVNVFFMHARHVLGWS | 8.977 ± 0.038
116 | MCCYVSCQ | 2.55 ± 0.12
117 | MCGFFVIIMRC | -0.652 ± 0.74
118 | MCRRFNFIIEVVVNASMTIR | -1.31 ± 1
119 | MCSSPRRNDKLNNGRFYSCS | -1.11 ± 0.54
120 | MCTAFSDNHHTRTYPAPKSH | 0.196 ± 0.46
121 | MCVCCYSIRGLVTGWLWLMA | 4 ± 0.061
122 | MDCRLV | 0.216 ± 0.51
123 | MDFYCRWVVWFQEGNF | 3.45 ± 0.058
124 | MDGDFSINFMDPSTTCLLYE | inactive
125 | MDMPVWG | 0.285 ± 1

Row | Substance | amyloid nucleation score
126 | MDSDNFLQYYSRYFNEVAFC | -0.145 ± 0.79
127 | MDSMWPSVGGALKSRSGVFR | -0.126 ± 0.39
128 | MEAIVERIGYITYVLNFKER | inactive
129 | MEIRTQLFVLVCSKNILGDS | -0.849 ± 1.1
130 | MEKARTGGGSVTHDGKCARW | 0.649 ± 0.22
131 | MFASNLRKMSGGGVI | -0.694 ± 1.1
132 | MFGGPGGGRDRVMVGDVLLG | 0.295 ± 1
133 | MFGTMWAWFSVYACEVAWN | 0.045 ± 0.62
134 | MFKWHYWVEHNFSTRDNICA | inactive
135 | MFLKVSLVGNMVSEKPGRSS | 3.21 ± 0.15
136 | MFNCTQSVLPLGF | inactive
137 | MFPVPLVNIGMPDRWVKEKD | 0.469 ± 0.34
138 | MFTVRWASFCVVINSSY | 2.91 ± 0.069
139 | MFVYADFSHILEKRGHTGNR | 2.64 ± 0.15
140 | MGCDGVSVLRWCTHIELGME | -0.782 ± 0.31
141 | MGFRGIHMRVCAFLRWYNNY | -0.709 ± 0.33
142 | MGGQLLSNECLHSDSFVCFH | 1.21 ± 0.47
143 | MGLSTRLH | inactive
144 | MGNLCCVPRYYMHQVEYPRF | inactive
145 | MGPKSRFRSTRNGVKYL | -0.571 ± 0.64
146 | MGRDLLASDSTCVGRVQGKL | 0.965 ± 0.57
147 | MGSGYSQCAGRGWARVERLG | 1.44 ± 0.3
148 | MIHYKYGFPNMGIRTYVSFV | 1.47 ± 0.26
149 | MIRKVYYSF | -0.77 ± 1
150 | MISCSLSFSLAPQDELRSCK | inactive

Row | Substance | amyloid nucleation score
151 | MKAHVVVTLSCRYNLYGAPH | 4.52 ± 0.054
152 | MKGNSSGVA | 1.25 ± 0.31
153 | MKPSSSLTYLE | -0.11 ± 0.5
154 | MKSSPA | -0.395 ± 0.32
155 | MKTGLGVFRSFDLVVYNRR | inactive
156 | MKVLGNCISQIVNMDVWLLF | -1.73 ± 0.47
157 | MLCCCTLQVGFAYIFLFL | 3.28 ± 0.15
158 | MLCGINGMMSSTLVCGRAII | -0.161 ± 0.65
159 | MLCRMSAFRLGMRYDTRFLL | -0.064 ± 1.1
160 | MLCRYVVVQGLKVNMGHVFC | 7.567 ± 0.065
161 | MLDMPDYCNYYL | 1.27 ± 0.14
162 | MLFSTATYSSGRRFDFVEIA | 0.422 ± 0.65
163 | MLIIKVLCSMCIVIFLTLIC | 2.55 ± 0.18
164 | MLKMS | 1.85 ± 0.15
165 | MLLVVYGQVRTISLLRRRSS | -0.243 ± 0.74
166 | MLRNWLCRY | 2.02 ± 0.42
167 | MLVSGSSLEW | 0.264 ± 0.42
168 | MLVVLWQSARRSVTIIKVRT | 0.546 ± 0.5
169 | MLYYTCTQQHTDFLRCF | -0.391 ± 0.32
170 | MMGLGKCR | 1.36 ± 0.33
171 | MMKGRDKTGYPTTRGVMCDK | 0.232 ± 0.18

Reference: the supplement of paper PMC12042874
